According to patent US20160136234A1:

What was measured:
Assay in all cases: cell-based or functional assay
BRK (h) (human) = BRK (h) (human) (UniProt Q13882)
[1] = biological target: CDK9/cyclin T1 (h) (human) (UniProt P50750)
DCAMKL2 (h) (human) = biological target: T1, DCAMKL2 (h) (human) (UniProt Q8N568)
T1 sequence (looked up): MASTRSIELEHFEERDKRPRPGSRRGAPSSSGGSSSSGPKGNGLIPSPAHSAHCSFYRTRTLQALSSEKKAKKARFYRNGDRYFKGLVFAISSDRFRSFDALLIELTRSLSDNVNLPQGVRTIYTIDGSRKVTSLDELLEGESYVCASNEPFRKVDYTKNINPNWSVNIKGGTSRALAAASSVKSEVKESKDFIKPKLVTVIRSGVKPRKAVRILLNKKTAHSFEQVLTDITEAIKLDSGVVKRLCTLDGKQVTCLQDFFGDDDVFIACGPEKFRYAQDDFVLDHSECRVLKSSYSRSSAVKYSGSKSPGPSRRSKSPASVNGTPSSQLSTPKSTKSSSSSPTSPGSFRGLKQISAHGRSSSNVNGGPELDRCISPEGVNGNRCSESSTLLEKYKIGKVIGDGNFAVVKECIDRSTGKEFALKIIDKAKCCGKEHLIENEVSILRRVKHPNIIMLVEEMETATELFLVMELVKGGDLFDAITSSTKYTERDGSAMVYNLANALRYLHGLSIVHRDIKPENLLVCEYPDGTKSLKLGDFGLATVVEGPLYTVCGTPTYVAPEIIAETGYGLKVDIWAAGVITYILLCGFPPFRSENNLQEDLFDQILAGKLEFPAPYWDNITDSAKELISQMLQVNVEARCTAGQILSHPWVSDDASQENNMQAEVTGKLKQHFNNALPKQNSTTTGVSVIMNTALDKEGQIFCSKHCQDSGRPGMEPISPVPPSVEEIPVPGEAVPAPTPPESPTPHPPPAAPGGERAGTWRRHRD

DYRK2 (h) (human) = DYRK2 (h) (human) (UniProt Q92630)
EphA2 (h) (human) = EphA2 (h) (human) (UniProt P29317)
Sequence of EphA2 (h) (human) (P29317 559-976 limits assumed): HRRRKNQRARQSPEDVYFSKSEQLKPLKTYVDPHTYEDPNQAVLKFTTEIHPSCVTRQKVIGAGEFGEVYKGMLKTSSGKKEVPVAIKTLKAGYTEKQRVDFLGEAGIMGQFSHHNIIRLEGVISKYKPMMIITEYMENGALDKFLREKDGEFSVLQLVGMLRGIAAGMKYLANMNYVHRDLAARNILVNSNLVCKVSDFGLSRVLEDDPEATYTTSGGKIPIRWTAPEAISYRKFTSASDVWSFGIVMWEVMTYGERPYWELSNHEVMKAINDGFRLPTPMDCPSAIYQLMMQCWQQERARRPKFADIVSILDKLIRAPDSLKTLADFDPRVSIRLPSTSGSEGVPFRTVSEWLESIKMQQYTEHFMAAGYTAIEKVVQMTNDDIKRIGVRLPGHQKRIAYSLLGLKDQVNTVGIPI

FGFR2 (h) (human) = FGFR2 (h) (human) (UniProt P21802)
Sequence of FGFR2 (h) (human) (P21802 456-770 limits assumed): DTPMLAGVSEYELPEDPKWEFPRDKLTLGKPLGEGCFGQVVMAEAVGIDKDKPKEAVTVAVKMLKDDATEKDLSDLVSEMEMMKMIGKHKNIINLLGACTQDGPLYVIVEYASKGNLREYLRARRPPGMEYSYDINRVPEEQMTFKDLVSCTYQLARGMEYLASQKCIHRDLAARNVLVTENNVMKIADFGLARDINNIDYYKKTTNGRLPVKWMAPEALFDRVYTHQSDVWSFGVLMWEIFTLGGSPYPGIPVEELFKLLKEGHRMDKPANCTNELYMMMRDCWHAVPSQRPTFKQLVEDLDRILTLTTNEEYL

Fer (h) (human) = Fer (h) (human) (UniProt P16591)
GSK3β (h) (human) = GSK3β (h) (human) (UniProt P49841)
LOK (h) (human) = LOK (h) (human) (UniProt O94804)
Met(M1268T) (h) (human) = Met(M1268T) (h) (human) (UniProt P08581)
MuSK (h) (human) = MuSK (h) (human) (UniProt O15146)
PASK (h) (human) = PASK (h) (human) (UniProt Q96RG2)
PDGFRα (h) (human) = PDGFRα (h) (human) (UniProt P16234)
Sequence of PDGFRα (h) (human) (P16234 550-1089 limits assumed): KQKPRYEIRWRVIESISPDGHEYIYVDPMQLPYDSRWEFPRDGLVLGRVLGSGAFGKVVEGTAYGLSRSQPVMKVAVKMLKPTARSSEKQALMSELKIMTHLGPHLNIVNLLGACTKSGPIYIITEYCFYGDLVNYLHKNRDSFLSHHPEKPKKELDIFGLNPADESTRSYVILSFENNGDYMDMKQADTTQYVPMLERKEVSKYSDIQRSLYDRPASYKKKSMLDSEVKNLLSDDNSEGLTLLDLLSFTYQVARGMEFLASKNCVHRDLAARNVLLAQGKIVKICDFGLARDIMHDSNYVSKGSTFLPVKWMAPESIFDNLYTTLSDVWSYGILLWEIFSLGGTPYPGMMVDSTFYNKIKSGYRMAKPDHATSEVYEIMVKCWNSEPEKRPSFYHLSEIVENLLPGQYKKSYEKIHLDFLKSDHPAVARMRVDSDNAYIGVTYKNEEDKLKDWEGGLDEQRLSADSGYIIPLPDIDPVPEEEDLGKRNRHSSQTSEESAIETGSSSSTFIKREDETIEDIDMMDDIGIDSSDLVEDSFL

PKBα (h) (human) = PKBα (h) (human) (UniProt P31749)
Sequence of PKBα (h) (human) (P31749 whole entry): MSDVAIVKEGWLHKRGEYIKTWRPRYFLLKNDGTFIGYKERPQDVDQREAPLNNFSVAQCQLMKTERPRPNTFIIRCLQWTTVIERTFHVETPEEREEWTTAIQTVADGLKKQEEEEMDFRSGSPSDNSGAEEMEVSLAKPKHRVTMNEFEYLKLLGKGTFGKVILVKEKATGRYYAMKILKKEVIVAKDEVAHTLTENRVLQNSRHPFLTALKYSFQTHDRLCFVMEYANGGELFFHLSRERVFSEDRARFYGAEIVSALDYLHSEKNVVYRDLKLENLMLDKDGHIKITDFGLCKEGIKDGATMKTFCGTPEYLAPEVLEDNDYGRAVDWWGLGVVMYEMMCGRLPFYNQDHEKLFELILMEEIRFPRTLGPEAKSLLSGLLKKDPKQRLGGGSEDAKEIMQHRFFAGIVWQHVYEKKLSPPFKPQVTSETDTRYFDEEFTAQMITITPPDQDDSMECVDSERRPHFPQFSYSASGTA

PKBγ (h) (human) = PKBγ (h) (human) (UniProt Q9Y243)
Sequence of PKBγ (h) (human) (Q9Y243 whole entry): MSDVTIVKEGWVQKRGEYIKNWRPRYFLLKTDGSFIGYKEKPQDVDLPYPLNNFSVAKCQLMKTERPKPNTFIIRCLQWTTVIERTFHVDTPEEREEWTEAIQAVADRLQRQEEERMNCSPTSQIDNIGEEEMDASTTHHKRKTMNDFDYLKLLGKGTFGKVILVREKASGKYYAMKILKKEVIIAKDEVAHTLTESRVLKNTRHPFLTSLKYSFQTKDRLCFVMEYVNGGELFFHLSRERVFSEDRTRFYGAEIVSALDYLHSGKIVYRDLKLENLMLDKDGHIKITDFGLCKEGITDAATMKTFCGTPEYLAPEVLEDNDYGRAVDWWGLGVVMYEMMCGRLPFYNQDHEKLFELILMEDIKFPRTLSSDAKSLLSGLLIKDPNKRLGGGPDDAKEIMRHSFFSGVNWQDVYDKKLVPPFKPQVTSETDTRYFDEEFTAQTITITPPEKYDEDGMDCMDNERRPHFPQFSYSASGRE

PKCµ (h) (human) = biological target: T2, PKCµ (h) (human) (UniProt Q15139)
T2 sequence (looked up): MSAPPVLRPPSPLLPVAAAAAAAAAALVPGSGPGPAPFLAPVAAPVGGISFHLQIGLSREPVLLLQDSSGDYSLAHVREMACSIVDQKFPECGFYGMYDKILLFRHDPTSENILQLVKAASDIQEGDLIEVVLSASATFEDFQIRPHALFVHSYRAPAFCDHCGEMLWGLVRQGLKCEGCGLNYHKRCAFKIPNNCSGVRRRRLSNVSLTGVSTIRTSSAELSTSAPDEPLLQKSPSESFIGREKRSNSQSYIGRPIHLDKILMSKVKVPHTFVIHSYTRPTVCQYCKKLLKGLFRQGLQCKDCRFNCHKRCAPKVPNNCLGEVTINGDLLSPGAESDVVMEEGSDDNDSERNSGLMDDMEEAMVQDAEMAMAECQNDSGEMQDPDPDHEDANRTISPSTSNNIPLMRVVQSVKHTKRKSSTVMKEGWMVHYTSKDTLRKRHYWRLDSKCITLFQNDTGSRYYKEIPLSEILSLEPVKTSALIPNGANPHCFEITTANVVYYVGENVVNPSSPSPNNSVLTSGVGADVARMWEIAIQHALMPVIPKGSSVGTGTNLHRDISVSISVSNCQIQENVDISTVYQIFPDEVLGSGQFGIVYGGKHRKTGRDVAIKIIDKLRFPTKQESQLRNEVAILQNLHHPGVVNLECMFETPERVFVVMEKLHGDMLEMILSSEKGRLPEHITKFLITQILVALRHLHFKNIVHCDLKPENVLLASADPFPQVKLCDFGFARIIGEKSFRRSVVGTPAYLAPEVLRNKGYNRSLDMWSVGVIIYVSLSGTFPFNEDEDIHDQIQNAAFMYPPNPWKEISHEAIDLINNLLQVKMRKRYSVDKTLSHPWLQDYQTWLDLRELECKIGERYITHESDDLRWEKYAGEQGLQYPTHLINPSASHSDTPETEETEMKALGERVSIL

ROCK-I (h) (human) = ROCK-I (h) (human) (UniProt Q13464)
Ros (h) (human) = Ros (h) (human) (UniProt P08922)
Sequence of Ros (h) (human) (P08922 1883-2347 limits assumed): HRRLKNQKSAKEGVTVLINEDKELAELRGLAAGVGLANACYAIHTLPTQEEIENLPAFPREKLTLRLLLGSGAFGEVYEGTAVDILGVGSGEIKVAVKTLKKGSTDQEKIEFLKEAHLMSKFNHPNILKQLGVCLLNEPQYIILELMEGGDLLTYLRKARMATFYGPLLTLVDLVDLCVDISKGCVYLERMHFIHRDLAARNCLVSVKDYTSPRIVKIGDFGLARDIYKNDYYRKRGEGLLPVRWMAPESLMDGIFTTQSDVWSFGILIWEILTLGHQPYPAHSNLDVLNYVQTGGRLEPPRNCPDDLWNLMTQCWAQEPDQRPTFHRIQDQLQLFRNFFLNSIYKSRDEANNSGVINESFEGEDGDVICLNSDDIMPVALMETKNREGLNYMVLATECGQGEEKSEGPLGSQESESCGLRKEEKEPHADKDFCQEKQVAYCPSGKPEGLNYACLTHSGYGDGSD

SRPK1 (h) (human) = SRPK1 (h) (human) (UniProt Q96SB4)
cSRC (h) (human) = cSRC (h) (human) (UniProt P12931)

- % activity at 100 µM (BRK (h) (human)): 35%
- % activity at 100 µM [1]: 91%
- % activity at 100 µM (DCAMKL2 (h) (human)): 81%
- % activity at 100 µM (DYRK2 (h) (human)): 155%
- % activity at 100 µM (EphA2 (h) (human)): 31%
- % activity at 100 µM (FGFR2 (h) (human)): 14%
- % activity at 100 µM (Fer (h) (human)): 130%
- % activity at 100 µM (GSK3β (h) (human)): 205%
- % activity at 100 µM (LOK (h) (human)): 37%
- % activity at 100 µM (Met(M1268T) (h) (human)): 255%
- % activity at 100 µM (MuSK (h) (human)): 93%
- % activity at 100 µM (PASK (h) (human)): 29%
- % activity at 100 µM (PDGFRα (h) (human)): 65%
- % activity at 100 µM (PKBα (h) (human)): 57%
- % activity at 100 µM (PKBγ (h) (human)): 20%
- % activity at 100 µM (PKCµ (h) (human)): 22%
- % activity at 100 µM (ROCK-I (h) (human)): 79%
- % activity at 100 µM (Ros (h) (human)): 95%
- % activity at 100 µM (SRPK1 (h) (human)): 90%
- % activity at 100 µM (cSRC (h) (human)): 26%
Substance: MMI-0300 (peptide)
